In paper PMC7062800:

How the values were obtained:
[1] = system: RdhK1 (CprK4) (Desulfitobacterium hafniense DCB-2); assay: EMSA; conditions: no effector; EMSA: 100 ng DNA, 2 uM protein, 200 uM effector, 15 uL; buffer 100 mM Tris-HCl pH 8.5, 40% glycerol, 10 mM MgCl2, 500 mM NaCl, 5 mM EDTA, 10 mM DTT …
[2] = target: RdhK6 (CprK1) (Desulfitobacterium hafniense DCB-2) (UniProt Q18R04); assay: EMSA; conditions: 200 uM Cl-OHPA; EMSA: 100 ng DNA, 2 uM protein, 200 uM effector, 15 uL; buffer 100 mM Tris-HCl pH 8.5, 40% glycerol, 10 mM MgCl2, 500 mM NaCl, 5 mM EDTA, 10 mM DTT …

Sequence	binding signal [1] [% DNA bound]	binding signal [2] [% DNA bound]
GAATTCTCAGGCGATGTAACCGCTTTCAAAGTTAATACACATTAATACTCTTAACAATGTGATAGCTATGATTGCACCG (double strand) [mgl-DB7]	10	100
GAATTCTCAGGCGATGTAACCGCTTTCAAATTTAGTATACGCTAAATATCTTAACAATGTGATAGCTATGATTGCACCG (double strand) [mgl-DB8]	80	100
